Consider 16 substances from PMC5523735.

A short description of series [1]: proBNP/BNP ratio in NRVM medium. As to conditions: glycan lost.
Series [2] can be described thus: proBNP/BNP ratio in cardiac fibroblast medium. The following applies: glycan lost; control: WT-proBNP.
The nature of series [3]: gel filtration: proBNP peak relative to mature BNP peak. The following applies: glycan lost; control: WT-proBNP.
Series [4] can be described thus: proBNP/BNP ratio in human iPS-CM medium. As to conditions: glycan lost; control: control oligo.
Setting [5] is: control: control oligo, WT-proBNP.

Like-named read-outs stand apart in the source and are kept apart here.

For the substance “human proBNP (prohormone for brain natriuretic peptide): T48A/T71A”, in series [1] (control: WT-proBNP), the “other: proteolytic processing” value is reported as “increases”.

For the substance “human proBNP (prohormone for brain natriuretic peptide): T48A”, the “other: proteolytic processing” value in series [2], in series [3] and in series [1] (control: WT-proBNP) was “increases” throughout.

On to “proBNP (prohormone for brain natriuretic peptide): GALNT1 or GALNT2 siRNA knockdown”, for which the other entry is “increases” (O-glycosylation other at T48) and “increases” (O-glycosylation other at T71).

Regarding “proBNP (prohormone for brain natriuretic peptide): T71A”, the other result (O-glycosylation other at T71) is recorded as “increases”.

“human proBNP (prohormone for brain natriuretic peptide): GALNT2 siRNA”: the “other: proteolytic processing” value in series [4] and in series [1] (setting [5]) was “increases” throughout.

As for “human proBNP (prohormone for brain natriuretic peptide): GALNT1 siRNA”, the “other: proteolytic processing” value in series [4] and in series [1] (setting [5]) was “increases” each time.

Regarding “proBNP (prohormone for brain natriuretic peptide): T71A (cardiac fibroblasts)”, the other entry (O-glycosylation other at T71) was “increases”.

Consider “human proBNP (prohormone for brain natriuretic peptide): non-glyco”, for which the “other: proteolytic processing” value in series [1] (control: WT-proBNP) is “increases”.

For “proBNP (prohormone for brain natriuretic peptide): non-glyco versus T71glyco (only Thr71 preserved, other 6 sites Ala)”, the other entry (O-glycosylation other at T71) is on record as “increases”.

Regarding “human proBNP (prohormone for brain natriuretic peptide): T48/T71glyco”, the “other: proteolytic processing” value in series [1] (control: WT-proBNP) is reported as “increases”.

In the case of “proBNP (prohormone for brain natriuretic peptide): T48A”, the other result (O-glycosylation other at T48) is recorded as “increases”.

On to “human proBNP (prohormone for brain natriuretic peptide): T71A”, for which the “other: proteolytic processing” value in series [2], in series [3] and in series [1] (control: WT-proBNP) was “increases” throughout.

For “proBNP (prohormone for brain natriuretic peptide): T48A (cardiac fibroblasts)”, the other result (O-glycosylation other at T48) is listed as “increases”.

For the substance “proBNP (prohormone for brain natriuretic peptide): T48/T71glyco (T36A, S37A, S44A, S53A, T58A)”, the other result is “increases” (O-glycosylation other at S37); “increases” (O-glycosylation other at S44); “increases” (O-glycosylation other at S53); “increases” (O-glycosylation other at T36); “increases” (O-glycosylation other at T58).

Consider “proBNP (prohormone for brain natriuretic peptide): non-glyco versus T48glyco (only Thr48 preserved, other 6 sites Ala)”, for which the other entry (O-glycosylation other at T48) is recorded as “increases”.

Regarding “proBNP (prohormone for brain natriuretic peptide): T48A/T71A”, the other result (O-glycosylation other at T48) was “increases” and the other entry (O-glycosylation other at T71) is “increases”.
